# Test results as given in IntAct's records for PubMed 19855379.
# B1: Protein phosphatase 2C 56 (Arabidopsis thaliana (Mouse-ear cress)), P49597 (parent)
# chain: MEEVSPAIAGPFRPFSETQMDFTGIRLGKGYCNNQYSNQDSENGDLMVSLPETSSCSVSGSHGSESRKVLISRINSPNLNMKESAAADIVVVDISAGDEINGSDITSEKKMISRTESRSLFEFKSVPLYGFTSICGRRPEMEDAVSTIPRFLQSSSGSMLDGRFDPQSAAHFFGVYDGHGGSQVANYCRERMHLALAEEIAKEKPMLCDGDTWLEKWKKALFNSFLRVDSEIESVAPETVGSTSVVAVVFPSHIFVANCGDSRAVLCRGKTALPLSVDHKPDREDEAARIEAAGGKVIQWNGARVFGVLAMSRSIGDRYLKPSIIPDPEVTAVKRVKEDDCLILASDGVWDVMTDEEACEMARKRILLWHKKNAVAGDASLLADERRKEGKDPAAMSAAEYLSKLAIQRGSKDNISVVVVDLKPRRKLKSKPLN
# B2: Abscisic acid receptor PYL1 (Arabidopsis thaliana (Mouse-ear cress)), Q8VZS8 (parent)
# chain: MANSESSSSPVNEEENSQRISTLHHQTMPSDLTQDEFTQLSQSIAEFHTYQLGNGRCSSLLAQRIHAPPETVWSVVRRFDRPQIYKHFIKSCNVSEDFEMRVGCTRDVNVISGLPANTSRERLDLLDDDRRVTGFSITGGEHRLRNYKSVTTVHRFEKEEEEERIWTVVLESYVVDVPEGNSEEDTRLFADTVIRLNLQKLASITEAMNRNNNNNNSSQVR
# Variants of: B1
# Conditions: with pyl1_arath PYL1, Q8VZS8
row,Variant,effect of a mutation on the interaction
1,R304A,disrupting interaction
2,Y319A,decreasing interaction
3,W300A,disrupting interaction
4,E142A,decreasing interaction
5,I298A,disrupting interaction

# Variants of: B2
# Conditions: with ABI1, P49597
row,Variant,effect of a mutation on the interaction
1,H142A,disrupting interaction
2,F189A,decreasing interaction
3,R143A,decreasing interaction
4,L144A,disrupting interaction
